Substitutions are numbered along the chain they refer to.
B1: IM-1155 Tribody, additional CD3 epsilon mutant variant (other)
heavy: GGSGGSEVQLVESGGGLVQPGGSLRLSCAASGFTFNGGSGGWVRQAPGKGLEWVAGGGSGGGGSGGGSGGSGGGRFTISRDDSKNTLYLQMNSLRAEDTAVYYCVRGGGSGGSGGSGGGGWGQGTMVTVSSASTKGPSVFPLAPSSKSTSGGTAALGCLVKDYFPEPVTVSWNSGALTSGVHTFPAVLQSSGLYSLSSVVTVPSSSLGTQTYICNVNHKPSNTKVDKRVEPKSCPPCGGGGSDIQMTQSPSSLSASVGDRVTITCRASENIYSYLAWYQQKPGKAPKLLIYNAKTLAEGVPSRFSGSGSGTDFTLTISSLQPEDFATYYCQHHYGTPRTFGGGTKVEIKGGGGSGGGGSGGGGSGGGGSQVQLVQSGAEVKKPGASVKVSCKASGYTFTSYWMNWVRQAPGQGLEWMGRIDPYDSETHYAQKLQGRVTMTTDTSTSTAYMELRSLRSDDTAVYYCARGGYDFDVGTLYWFFDVWGQGTTVTVSS
light: GGSGGSQAVVTQEPSLTVSPGGTVTLTCGSSGGGSGGGGSGGWVQQKPGQAPRGLIGGGSGGGSGTPARFSGSLLGGKAALTLSGVQPEDEAEYYCGGGGSGGGGFGGGTKLTVLGQPKAAPSVTLFPPSSEELQANKATLVCLISDFYPGAVTVAWKADSSPVKAGVETTTPSKQSNNKYAASSYLSLTPEQWKSHRSYSCQVTHEGSTVEKTVAPTECPPCSGGGSDIQMTQSPSSLSASVGDRVTITCRASQGISNYLAWFQQKPGKAPKSLIYRANRLQSGVPSRFSGSGSGTDFTLTISSLQPEDVATYYCLQYDDFPWTFGQGTKLEIKGGGGSGGGGSGGGGSGGGGSQVQLVQSGAEVKKPGASVKVSCKASGYTFTSFWMHWVRQAPGQGLEWMGRIDPNRGGTEYNEKAKSRVTMTADKSTSTAYMELSSLRSEDTAVYYCAGGNPYYPMDYWGQGTTVTVSS
B2: IM-1063 variant (other)
heavy: GGSGGSEVQLVESGGGLVQPGGSLRLSCAASGFTFNTYAMNWVRQAPGKGLEWVARIRSKYNNYATYYADSVKDRFTISRDDSKNTLYLQMNSLRAEDTAVYYCVRHGNFGNSYVSWFAYWGQGTMVTVSSASTKGPSVFPLAPSSKSTSGGTAALGCLVKDYFPEPVTVSWNSGALTSGVHTFPAVLQSSGLYSLSSVVTVPSSSLGTQTYICNVNHKPSNTKVDKRVEPKSCPPCGGGGSQVQLVQSGAEVKKPGASVKVSCKASGYTFTSYWMNWVRQAPGQGLEWMGRIDPYDSETHYAQKLQGRVTMTTDTSTSTAYMELRSLRSDDTAVYYCARGGYDFDVGTLYWFFDVWGQGTTVTVSSGGGGSGGGGSGGGGSGGGGSDIQMTQSPSSLSASVGDRVTITCRASENIYSYLAWYQQKPGKAPKLLIYNAKTLAEGVPSRFSGSGSGTDFTLTISSLQPEDFATYYCQHHYGTPRTFGGGTKVEIK
light: GGSGGSQAVVTQEPSLTVSPGGTVTLTCRSSTGAVTTSNYANWVQQKPGQAPRGLIGGTNKRAPGTPARFSGSLLGGKAALTLSGVQPEDEAEYYCALWYSNLWVFGGGTKLTVLGQPKAAPSVTLFPPSSEELQANKATLVCLISDFYPGAVTVAWKADSSPVKAGVETTTPSKQSNNKYAASSYLSLTPEQWKSHRSYSCQVTHEGSTVEKTVAPTECPPCSGGGSDIQMTQSPSSLSASVGDRVTITCRASQGISNYLAWFQQKPGKAPKSLIYRANRLQSGVPSRFSGSGSGTDFTLTISSLQPEDVATYYCLQYDDFPWTFGQGTKLEIKGGGGSGGGGSGGGGSGGGGSQVQLVQSGAEVKKPGASVKVSCKASGYTFTSFWMHWVRQAPGQGLEWMGRIDPNRGGTEYNEKAKSRVTMTADKSTSTAYMELSSLRSEDTAVYYCAGGNPYYPMDYWGQGTTVTVSS
notes: CD3/5T4/NKG2A Tribody variant
B3: IM-1153 Tribody, CD3 mutant variant (other)
heavy: GGSGGSEVQLVESGGGLVQPGGSLRLSCAASGFTFNTYAMNWVRQAPGKGLEWVARIGSGGNGYATYYADSVKDRFTISRDDSKNTLYLQMNSLRAEDTAVYYCVRHGNFGASARSWFAYWGQGTMVTVSSASTKGPSVFPLAPSSKSTSGGTAALGCLVKDYFPEPVTVSWNSGALTSGVHTFPAVLQSSGLYSLSSVVTVPSSSLGTQTYICNVNHKPSNTKVDKRVEPKSCPPCGGGGSDIQMTQSPSSLSASVGDRVTITCRASENIYSYLAWYQQKPGKAPKLLIYNAKTLAEGVPSRFSGSGSGTDFTLTISSLQPEDFATYYCQHHYGTPRTFGGGTKVEIKGGGGSGGGGSGGGGSGGGGSQVQLVQSGAEVKKPGASVKVSCKASGYTFTSYWMNWVRQAPGQGLEWMGRIDPYDSETHYAQKLQGRVTMTTDTSTSTAYMELRSLRSDDTAVYYCARGGYDFDVGTLYWFFDVWGQGTTVTVSS
light: B2 light with T37R, S38G, Y40A, K61A, W99G, N102G

Columns and labels:
[1] = target: T1, NKG2A/CD94 on CHO cells (CHOK1-NKG2A-CD94) (human, UniProt P26715 1-233; Q13241 1-179, limits assumed); assay: competitive FACS receptor-ligand blocking assay on CHOK1-NKG2A-CD94 cells, labelled ligand HLA-E PE (FIG. 49)
T1 construct: whole, on cells; also called CHO cells over-expressing NKG2A/CD94; CHO cell line over expressing ectopic NKG2A
T1 sequence (P26715 whole entry, chain 1 of 2): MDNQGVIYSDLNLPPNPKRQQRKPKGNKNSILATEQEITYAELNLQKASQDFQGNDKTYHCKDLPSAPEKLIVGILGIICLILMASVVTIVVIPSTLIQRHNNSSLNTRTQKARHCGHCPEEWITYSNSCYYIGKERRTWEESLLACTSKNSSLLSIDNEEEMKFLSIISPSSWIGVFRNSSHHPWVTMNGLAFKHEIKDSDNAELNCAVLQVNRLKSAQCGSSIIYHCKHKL
T1 sequence (Q13241 whole entry, chain 2 of 2): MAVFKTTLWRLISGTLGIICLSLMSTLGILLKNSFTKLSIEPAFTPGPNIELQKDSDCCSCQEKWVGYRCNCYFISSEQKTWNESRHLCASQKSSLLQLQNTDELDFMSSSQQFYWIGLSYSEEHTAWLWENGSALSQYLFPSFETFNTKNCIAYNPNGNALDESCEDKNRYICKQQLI

[2] = target: T2, 5T4 on cells (NCI-H226 endogenous; CHO over-expressing 5T4) (UniProt Q13641 32-420, limits assumed); assay: FACS on NCI-H226 cells, endogenous 5T4 (FIG. 45B)
T2 construct: whole, on cells
T2 sequence (looked up): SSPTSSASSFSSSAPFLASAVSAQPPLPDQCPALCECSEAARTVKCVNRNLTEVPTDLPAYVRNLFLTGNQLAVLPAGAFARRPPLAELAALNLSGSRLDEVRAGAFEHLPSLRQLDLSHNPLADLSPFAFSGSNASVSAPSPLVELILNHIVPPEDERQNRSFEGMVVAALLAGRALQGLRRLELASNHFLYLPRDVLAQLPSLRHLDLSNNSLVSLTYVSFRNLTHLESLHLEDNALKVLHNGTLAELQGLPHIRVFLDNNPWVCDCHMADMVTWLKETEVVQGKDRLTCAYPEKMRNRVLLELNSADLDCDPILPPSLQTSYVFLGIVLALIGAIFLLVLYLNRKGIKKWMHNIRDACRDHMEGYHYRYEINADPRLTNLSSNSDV
Description: (§1) Suspension cultured cells was harvested directly, and adherent cell were digested using TrypLE Express Enzyme (cat: 12604-013, supplier Life technologies). Centrifuge at 1000 rpm for 5 min and discard the supernatant. Cells are suspended at a concentration of 2×10⁶/mL in FACS buffer (2% FBS in PBS) and add 100 µL/well of cell suspension to the plate (cat #3799, supplier Corning). Centrifuging the plates at 2000 rpm for 5 min and discard the supernatant. Re-suspend the cells in 100 µL/well of Tribody set antibodies (400 nM start, 4-fold dilution, 8 point including 0 point) and incubate the plate for 60 min at 4° C. Centrifuge the plate at 2000 rpm, 4° C. for 5 min and discard supernatant. Then wash the cells 3 times with 170 µL FACS buffer. Re-suspend the cells at 100 µL/well with secondary antibody (goat anti-human Ig Fab-FITC, Cat # 2085-02, Southern biotech) with 1:400 dilution and incubate the plate for 30 min at 4° C. in dark. Centrifuge the plate at 2000 rpm, 4° C. for 5 min and discard supernatant. […] The fluorescence intensity of the staining was measured using flow cytometer (BD, FACSVerse). The geometric mean fluorescence intensity (GMFI; median fluorescence intensity (MFI)) of set antibodies staining was calculated (BD FACSuite software). Dose-response curves were generated and EC50s for thetrispecific variants binding were calculated using GraphPad Prism software.

[3] = target: T3, h5T4-His (recombinant human 5T4) (human, UniProt Q13641 32-355, limits assumed); assay: ELISA on coated h5T4-His (FIG. 43B)
T3 construct: Bought protein; also called recombinant 5T4
T3 sequence (looked up): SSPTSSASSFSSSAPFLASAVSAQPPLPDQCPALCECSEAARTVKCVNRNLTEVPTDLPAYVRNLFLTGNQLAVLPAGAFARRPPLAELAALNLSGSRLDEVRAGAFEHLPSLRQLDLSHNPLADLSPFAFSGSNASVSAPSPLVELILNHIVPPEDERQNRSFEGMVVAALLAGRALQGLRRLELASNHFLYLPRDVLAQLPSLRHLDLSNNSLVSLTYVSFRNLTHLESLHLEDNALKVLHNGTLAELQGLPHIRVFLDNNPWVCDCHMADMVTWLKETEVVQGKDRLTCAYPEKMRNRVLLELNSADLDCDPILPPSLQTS
Description: (§2) Methods: ELISA binding of Tribody/ProTribody antibody constructs to antigens: Dilute target protein (hCD3epsilon-His (cat # 10977-H08S, supplier Sino Biological); h5T4-His (cat# 19845-H08H, supplier Sino Biological); NKG2A-CD94-ECD-hFc, Lot:20200724002, provided by CP; or NKG2D-ECD-hFc, Lot: 20200413002, provided by CP) into PBS with final concentration of 0.01 µg/mL for hCD3epsilon-His, 0.3 µg/mL for h5T4-His, 1 µg/mL for NKG2A-CD94-ECD-hFc and 0.7 µg/mL for hNKG2D-ECD-hFc respectively and coat 100 µL/well on ELISA plate (cat: 9018, supplier Corning) respectively. Incubate O/N, 4° C. The plates were blocked with 250 µL 1% BSA in PBST for 1 hr at 37° C.Wash 4 times with PBST. All the washes are done using Biotek (Elx 405). All the Tribody set antibodies were diluted to 400 nM and make 4-fold serially dilutions (12 points, including 0 point). Add 100 µL/well diluted antibody constructs solution to plate, incubate for 1 hr at 37° C.Wash 4 times with PBST. Add 100 µL/well anti-human kappa light chain-HRP (1:10000), incubate for 0.5 hr at 37° C. Wash 4 times with PBST. 100 µL/well of TMB substrate was added and incubated at room temperature for 5 min. 100 µL/well of 1N HCl to terminate reaction. Plates were read using ELISA plate reader at 450 nm wavelength (instrunet SpectraMax M5e). Data Analysis was performed using Graphpad prism 5 software by using nonlinear regression (curve fit): log (agonist) vs. response, agonist is antibody concentration (nM) and response is OD value.

NKG2A-CD94-ECD-hFc = target: T4, NKG2A-CD94-ECD-hFc (human, UniProt P26715 94-233; Q13241 32-179, limits assumed); assay: ELISA on coated NKG2A-CD94-ECD-hFc (FIG. 43C)
T4 construct: extracellular domain; Lot 20200724002, 'provided by CP'; the two-chain layout here is only the reading of the name; also called human NKG2A (recombinant); NKG2A antigen; not shown: human Fc (hFc)
T4 sequence (P26715 94-233 limits assumed, chain 1 of 2): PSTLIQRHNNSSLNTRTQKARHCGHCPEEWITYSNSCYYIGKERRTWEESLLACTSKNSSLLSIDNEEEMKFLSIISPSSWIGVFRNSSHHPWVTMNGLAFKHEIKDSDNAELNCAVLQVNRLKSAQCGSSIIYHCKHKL
T4 sequence (Q13241 32-179 limits assumed, chain 2 of 2): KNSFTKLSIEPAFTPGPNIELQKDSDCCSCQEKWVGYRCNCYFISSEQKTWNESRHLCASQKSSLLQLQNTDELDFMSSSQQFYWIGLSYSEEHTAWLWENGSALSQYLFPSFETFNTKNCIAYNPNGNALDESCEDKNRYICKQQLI
Description: as §2

[4] = target: T5, NKG2A on NK92 cells (endogenous) (UniProt P26715 1-233, limits assumed); assay: FACS on NK92 cells, endogenous NKG2A (FIG. 45C)
T5 construct: whole, on cells
T5 sequence (P26715 whole entry): as the sequence (P26715 whole entry, chain 1 of 2) above
Description: as §1

[5] = target: T2, 5T4 on cells (NCI-H226 endogenous; CHO …); assay: FACS on CHO cells over-expressing ectopic 5T4 (FIG. 45D)
Description: Then wash the cells 3 times with 170 µL FACS buffer. Re-suspend the cells at 100 µL/well with secondary antibody (goat anti-human Ig Fab-FITC, Cat # 2085-02, Southern biotech) with 1:400 dilution and incubate the plate for 30 min at 4° C. in dark. Centrifuge the plate at 2000 rpm, 4° C. for 5 min and discard supernatant. Then wash the cells 3 times with FACS buffer and analyze the sample with FACS verse. The fluorescence intensity of the staining was measured using flow cytometer (BD, FACSVerse). The geometric mean fluorescence intensity (GMFI; median fluorescence intensity (MFI)) of set antibodies staining was calculated (BD FACSuite software). Dose-response curves were generated and EC50s for thetrispecific variants binding were calculated using GraphPad Prism software.
Results: The expressed trispecific constructs were analyzed for their binding to cells expressing endogenous CD3ε, 5T4 and NKG2A/NKG2D. […] (FIG. 45F).

[6] = target: T1, NKG2A/CD94 on CHO cells …; assay: FACS on CHO cells over-expressing ectopic NKG2A (NKG2A/CD94 by the legend) (FIG. 45E)
Description: as §1

Binder	IC50 [1]	EC50 [2]	EC50 [3]	EC50 (NKG2A-CD94-ECD-hFc)	EC50 [4]	EC50 [5]	EC50 [6]
B1	60 nM						
B2		1.64 nM					
B3	18 nM		31 nM	2.1 nM	3.7 nM	1.33 nM	3 nM

From patent US20230312753A1 (IMMUNORIZON, published 2023)
